Marks after values point to notes of the source that are not given here.
Experiments:
[1] = system: toe swelling in rat induced by carrageenan; test: Acute inflammation of toe swelling in rat induced by carrageenan; type: in vivo; conditions: for Swelling degree 1 h: 1 h after carrageenan; for Swelling degree 1 h / Swelling degree 3 h / Swelling degree 5 h / Swelling degree 7 h: rat foot; for Swelling degree 3 h: 3 h after carrageenan; for Swelling degree 5 h: 5 h after carrageenan; for Swelling degree 7 h: 7 h after carrageenan
Procedure: 80 SD rats were randomly divided into 8 groups with 10 mice for each group. […] The drug was administered once by injection, and the model group was given an equal volume of physiological saline and fed normally. On the third day, 0.1 mL of 1% carrageenan was injected subcutaneously into the right hind toes of the rats to induce inflammation. The foot volume was measured at 1 h, 3 h, 5 h, and 7 h after inflammation. The swelling degree of the foot was calculated according to the following formula: the swelling degree of the foot (mL)=the volume of the foot after inflammation—the volume before inflammation. The number of milliliters of spilled liquid was recorded (method: the protruding point of the right joint was circled with a ballpoint pen and used as a measurement mark, and the right hind feet of the rat were sequentially placed in the volume measuring device, so that the hind limbs were exposed outside the cylinder, and the depth of the immersion was limited to the overlap of the circle and the liquid level. After the foot entered the liquid, the liquid level was raised, and the volume of the spilled liquid was the volume of the right hind foot of the rat, and the normal volume of the right hind foot of each rat is sequentially determined).

[2] = system: melanoma cell line B16F10; test: MTT assay, proliferation of melanoma cell B16F10; type: cell-based
Procedure: (§1) The MTT assay was used to detect the inhibitory effect of the integrin blocker fusion protein obtained in Example 1 on the proliferation of various tumor cells, including melanoma cell B16F10, gastric cancer cell MGC-803, lung cancer cell A549, liver cancer cell Hep-G2, breast cancer cell MDA-MB-231, colon cancer cell HCT-116, human glioma U87, and cervical cancer cell Hela.
(§2) The tumor cells were cultured in a 5% CO2 incubator at 37° C. to a density of 90% or more, and collected by trypsinization. The cells were resuspended in the culture liquid and counted under a microscope. The cell concentration was adjusted to 3.0×10^4 cells/mL. The cell suspension was inoculated into a 96-well plate at 100 μL per well and cultured overnight in a 5% CO2 incubator at 37° C. […] After the cells were fully adhered, each dilution was added to a 96-well plate at 100 μL per well, respectively. […] 20 μL of 5 mg/mL MTT was added to each well of a 96-well plate, and incubation was continued for 4 hours. The medium was aspirated and 100 μL of DMSO per well were added to dissolve. The absorbance was measured at 570 nm with a microplate reader with a reference wavelength of 630 nm, and the proliferation inhibition (PI) was calculated. The formula is as follows: […]
(§3) where Ntest is the OD value of the test group and Ncontrol is the OD value of the blank control group.
(§4) The test was repeated 5 times independently. The results obtained from the test were calculated as mean±SD, and statistical t-test was performed. P<0.05 was considered as a significant difference, and P<0.01 was considered as an extremely significant difference.

[3] = system: retinal blood vessels in OIR mice; test: Retinal blood vessels in OIR mice; type: in vivo; conditions: dose 64 μg, injected into the vitreous body on day 13, evaluated on day 17
Description: Establishment of the OIR model: young mice and their mothers were exposed to 75% hyperoxic environment from day 7 to day 12 after birth of C57/B16 mice so that capillaries in the central retina rapidly disappeared. On day 12, the mice were returned to indoor air and the retinal blood vessels exposed to hyperoxia rapidly disappeared, which caused extensive abnormal neovascularization, and the central part of the retina remained largely avascular for a long time. After the blood vessels disappeared completely, the fusion protein (administration group, the doses of fusion protein I, protein II, protein III, protein IV, and protein V were all 64 μg) or physiological saline (negative group) was injected into the vitreous body on day 13. Retinal vessels were evaluated on day 17 (labeled as unclosed vessels, […] of Texas Red-labeled tomato lectin was injected into the left ventricle and cycled for 5 minutes).

[4] = system: diabetic retinopathy rat model; test: Neovascularization in diabetic retinopathy rat model (STZ); type: in vivo; conditions: 100 μg dose, intravitreal injection
Procedure: The experimental diabetic rat model was established with streptozotocin STZ. STZ was dissolved in 0.1 mol/L citrate buffer at pH 4.5 to prepare a 2% solution. All experimental Wistar rats were fasted for 12 h before injection, and each rat was intraperitoneally injected with a 2% STZ solution at a dose of 65 mg/kg. After the injection, the rats were fed in single cages, and urine sugar and blood sugar were detected at the 48th hour. When urine sugar was +++ or above, and blood glucose was higher than 16.7 mmol/L, the model establishment requirement is reached. The diabetic retinopathy model was successfully established by detecting blood glucose, urine glucose, and urine volume and retinal VEGF immunohistochemistry.
15 rats were randomly divided into […], which were labeled as a control group, and fusion protein I, protein II, protein III, protein IV and protein V treatment groups. The administration was performed via intravitreal injection once every 5 days for 2 weeks, in which the control group was injected with physiological saline (0.1 mL), and the fusion protein I, protein II, protein III, protein IV, and protein V were all administered with 100 μg (0.1 mL). Observation was performed on week 4, week 8, and week 12.

[5] = system: gastric cancer cell MGC-803; test: MTT assay, proliferation of gastric cancer cell MGC-803; type: cell-based
Procedure: as §1, §2, §3, §4

B1: Protein II: IgG2-Fc linked to antiangiogenesis polypeptide EDSM-Y via a flexible linker; SEQ ID NO: 17 (protein)
chain: ERKCCVECPPCPAPPVAGPSVFLFPPKPKDTLMISRTPEVTCVVVDVSHEDPEVQFNWYVDGVEVHNAKTKPREEQFNSTFRVVSVLTVVHQDWLNGKEYKCKVSNKGLPAPIEKTISKTKGQPREPQVYTLPPSREEMTKNQVSLTCLVKGFYPSDISVEWESNGQPENNYKTTPPMLDSDGSFFLYSKLTVDKSRWQQGNVFSCSVMHEALHNHYTQKSLSLSPGKGGGGSGGGGSGGGGSFQPVLHLVALNSPLSGGMRGIRGADFQCFQQARAVGLAGTFRAGGGGRGD
With B1 the “Swelling degree 1 h” value ([1]; 8 mg/kg) was 0.29 ± 0.25 mL, the “Swelling degree 3 h” value ([1]; 8 mg/kg) was 0.34 ± 0.09 mL and the “Swelling degree 5 h” value ([1]; 8 mg/kg) was 0.36 ± 0.12 mL. For the same molecule, the “Swelling degree 7 h” value ([1]; 8 mg/kg) was 0.41 ± 0.09 mL, the “Swelling degree 1 h” value ([1]; 32 mg/kg) was 0.27 ± 0.06 mL and the “Swelling degree 3 h” value ([1]; 32 mg/kg) was 0.41 ± 0.18 mL. For the same molecule, the “Swelling degree 5 h” value ([1]; 32 mg/kg) was 0.37 ± 0.11 mL, the “Swelling degree 7 h” value ([1]; 32 mg/kg) was 0.33 ± 0.02 mL and the “Swelling degree 1 h” value ([1]; 128 mg/kg) was 0.21 ± 0.16 mL. For the same molecule, the “Swelling degree 3 h” value ([1]; 128 mg/kg) was 0.32 ± 0.10 mL, the “Swelling degree 5 h” value ([1]; 128 mg/kg) was 0.41 ± 0.05 mL and the “Swelling degree 7 h” value ([1]; 128 mg/kg) was 0.36 ± 0.16 mL. For the same molecule, the “inhibition of toe swelling induced by carrageenan” value ([1]; high doses) was “could significantly inhibit toe swelling”, the “inhibition of toe swelling induced by carrageenan” value ([1]; low dose) was “not significant” and the “A570 nm/A630 nm” value ([2]; dose 1 μg/mL) was 1.1137 ± 0.0370. The “PI (%)” value ([2]; dose 1 μg/mL) was 11.17%, the “A570 nm/A630 nm” value ([2]; dose 2 μg/mL) was 1.0250 ± 0.0230 and the “PI (%)” value ([2]; dose 2 μg/mL) was 18.24%. For the same molecule, the “A570 nm/A630 nm” value ([2]; dose 4 μg/mL) was 0.8986 ± 0.0731, the “PI (%)” value ([2]; dose 4 μg/mL) was 28.32% and the “A570 nm/A630 nm” value ([2]; dose 8 μg/mL) was 0.7243 ± 0.0421. For the same molecule, the “PI (%)” value ([2]; dose 8 μg/mL) was 42.23%, the “A570 nm/A630 nm” value ([2]; dose 16 μg/mL) was 0.6400 ± 0.0661 and the “PI (%)” value ([2]; dose 16 μg/mL) was 48.95%. For the same molecule, the “A570 nm/A630 nm” value ([2]; dose 32 μg/mL) was 0.5034 ± 0.0286, the “PI (%)” value ([2]; dose 32 μg/mL) was 59.85% and the “A570 nm/A630 nm” value ([2]; dose 64 μg/mL) was 0.3867 ± 0.0195. The “PI (%)” value ([2]; dose 64 μg/mL) was 69.16%, the “PI (%)” value ([2]; dose 128 μg/mL) was 76.59% and the “A570 nm/A630 nm” value ([2]; dose 256 μg/mL) was 0.1777 ± 0.0212. The “PI (%)” value ([2]; dose 256 μg/mL) was 85.83%, the “Area (mm^2) occupied by neovascular clusters” value [3] was 0.146 ± 0.011* mm^2 and the “Reduce (%)” value [3] was 30.81%. The “Reduce (%)” value ([3]; listed as protein II) was 30.81%, the “therapeutic effect on diabetic retinopathy” value [4] was “a certain therapeutic effect on diabetic retinopathy” and the “A570 nm/A630 nm” value ([5]; dose 1 μg/mL) was 1.1122 ± 0.0374. The “PI (%)” value ([5]; dose 1 μg/mL) was 8.98%, the “A570 nm/A630 nm” value ([5]; dose 2 μg/mL) was 1.0149 ± 0.0253 and the “PI (%)” value ([5]; dose 2 μg/mL) was 16.94%. The “A570 nm/A630 nm” value ([5]; dose 4 μg/mL) was 0.8231 ± 0.0396, the “PI (%)” value ([5]; dose 4 μg/mL) was 32.64% and the “A570 nm/A630 nm” value ([5]; dose 8 μg/mL) was 0.7231 ± 0.0215. For the same molecule, the “PI (%)” value ([5]; dose 8 μg/mL) was 40.82%, the “PI (%)” value ([5]; dose 8 μg/mL, listed as protein II) was “about 40%” and the “A570 nm/A630 nm” value ([5]; dose 16 μg/mL) was 0.5216 ± 0.0192. For the same molecule, the “PI (%)” value ([5]; dose 16 μg/mL) was 57.31%, the “A570 nm/A630 nm” value ([5]; dose 32 μg/mL) was 0.4398 ± 0.0347 and the “PI (%)” value ([5]; dose 32 μg/mL) was 64.01%. The “A570 nm/A630 nm” value ([5]; dose 64 μg/mL) was 0.3378 ± 0.0286, the “PI (%)” value ([5]; dose 64 μg/mL) was 72.35% and the “A570 nm/A630 nm” value ([5]; dose 128 μg/mL) was 0.2203 ± 0.0147. The “PI (%)” value ([5]; dose 128 μg/mL) was 81.97%, the “A570 nm/A630 nm” value ([5]; dose 256 μg/mL) was 0.0987 ± 0.0159 and the “PI (%)” value ([5]; dose 256 μg/mL) was 91.92%.

— US11407811B2, “Fusion protein, preparation method therefor and use thereof” (JIANGSU RONGTAI BIOTECH CO., LTD., priority 2017, dated 2022)
